In patent US20120220522A1:

Target: insulin receptor (IR), B-isoform (UniProt P06213)
Test: relative binding affinity to insulin receptor, displacement of 125I-human insulin

Substance: ester insulin lispro folded (2) (ligand)
- relative activity (relative binding affinity): < 0.5%
